{
  "source": "paper PMC4769699",
  "about": "(Environmental microbiology reports, 2015)",
  "proteins": {"B1": {"name": "AmrZ1-66 (AmrZ without the C-terminal domain) (domain or fragment)", "chain": "MRPLKQATPTYSSRTADKFVVRLPEGMREQIAEVARSHHRSMNSEIIARLEQSLLQEGALQDNLGV"}},
  "target": "the molecule itself",
  "experiment": "native MS",
  "data": [
    {"protein": "B1", "values": [
      {"measurement": "stoichiometry N", "result": 2}
    ]}
  ]
}
